Results reported in a protein production outcome set (Wang et al. 2014).

Experiment: label from the status in PepcDB records

| Sequence | protein production |
| --- | --- |
| MAHIFVYGTLKRGQPNHKVMLDHSHGLAAFRGRGCTVESFPLVIAGEHNIPWLLYLPGKGHCVTGEIYEVDEQMLRFLDDFEDCPSMYQRTALQVQVLEWEGDGDPGDSVQCFVYTTATYAPEWLFLPYHESYDSEGPHGLRYNPRENR | not failed |
| MEAVTGYVKRKDLGRAVVQTDLGNPKAWEIRLTILTDEVLSENQKLATQKIDPSCAVDVSIGHGASDSPRGSSLAINEVRCECSSGISESDLETRGLAMIIDFVMRVASLERSVMNKRDLRFARVEKRFPKGKTKLKA | failed |
| MHRLYRFCLFGMALLSSIAASAAPTDQELIAALYAKVQARQDWQAQARQCPGDNMPARAAIRATQANRCETPEQLGACLQRCEAGDGNDCYWLATTLQQAKGPAEGYEPLYQRACSLGLVSGCTNRAAGMLTADADSQGTRHCAVQTFNKACELDDPWACTMYGFHLSRGIGVAPDADLALKVLDKSCKHGPADPACSGARQLQEDIRNALEAAKR | failed |
| MTKLGYVMTKSSAKNFKIYINGSAKGFKNIIISGAKAWNPSPYLNTVSIGNDVRPNYTVSSSGTNKGSVLAVCNTTYYKSNKLISKNEITLYKGFRSLSTNHKIETIVHEFGHGFGLGHVKTKNAIMLDKGFINKTKPQTDDFNGIKALYKLEHHHHHH | not failed |
| MLIDIALATYNGEKYIQEMLNSISNQTYQDFMIHLRDDGSTDNTLTLCENHKLYEQGKLKIYKDNIKGLGASKNFLKILGHCNSEYIFLCDQDDFWMKDKIQKMLDHIQKHEYKNNIKVPTLVFSDLQIVDRSLNIIADSFYRNSIKSSMCSSPFDFLLSNHIPGCAMVVNKSLLESIQPLPENFRMHDWWLAFVASFYGKIAYLDEPLIKYRQHGGNTVGVPGMNINILRQIKSILNFRDLLDKGLLHKKKMEIYIDKTCSNKILSYESNRFYDFLKGNMPFLEKNKIFKQIKFGEPLILSYLVWLFL | failed |
| MRLPPRLALSVLAGRGPSCILGSGAATRKDWQERNRRSFSDLYTQPLPDCDFEESSSWTHKSRSEPTRHIACKKSARNLVRDLLEHQNPSHQLILECNPGPGILTGALLKAGARVVAFESEKMFIPHLESLRKNADGELQVVHCDFFKIDPRYQELVRPDVNSHTIFQNLGIKAVPWSAGVPIKVFGILPNKHERRLLWKILFDLYSCESIYRYGRVELNMFISEKEFRVRC | failed |
| MTMRRVKGGLVQAVRVARGGAVAWLSLCMLMVGGQALAQQAITAPASNAVERVEQASTGESTVVTVTLKDTPAQKPVEFSTQQPARIAIDFFGTAFAQGRANYQYGGKLLRAASVVQIGDRTRVVLDLARQSQYKSEIRGNQYVLTLGAAPTASATPVPTFAAPAPTAGVERPSVRNIDFRRGEELAGRVVVDLSTSNSAINIAQQGQNLVVDFAGATLPQSLRRRFDVSDFGTPVQAMRATDNGTGARLVIEPRGNWQYSSYQTDTQFVVEVRPTKEDPNKLISGPGYRGERMSLNFQNIDIRSLLQVFADFTNLNIVTSDSVTGTLSLRLKDVPWDQALQIVLDSKGLASRRNGNVLWVAPRNELATKEKAELESQQQVTELEPLRSQVFRLNYQRADDVRNMLLGTGGTAGGGAAASRILSKRGSLTSDARTNQLFVSDIPSKLEEVQAFLLKIDIPVRQVMIEARIVEADDTFSRNLGAKLGFAAKTNGAGYGNTYSNVVSPVTKDATWDNSAAVSLPANGINGVNAASVAVSLFNAGAGRFLALELSALEADGRGKIISSPRVVTADNIKALIEQGTEVPYQQATSSGATSVSFKKANLKLEVTPKITPDGNVFLDVDVNKDSLGTQTTNGFAINTKHVQTQVLVENGGTVVIGGIYTQNERTDVNKVPLLGDIPVLGNLFKSTAKTNDRTELLVFLTPRVLSDQLSLK | failed |
| MPSLPASAESLLPPTLDESTRLEVLRGLCLLDSPPDPVFDTVAAMAARSLDAEIAVVSLVDEHRQWFKARIGLEARETPRSQAFCAHAIRSDEVMVVPDAQLDPRFCDNPLVLGPPFIRFYAGAPLKLRDGHRIGTLCVIGTSPRPGLDQAAITQLEGLRDLAVLRVENLRSTTYRDGPTGLPNRSRFSEDLDTWLSQRDTAPATTAVAIDVCGSDYFRDMVKALGWEYADGYIALAQRRLAAYLPGGTLLYRLDPTTFGFLAQAEGQRLATLCTKVSKAFTEPLEHQGIPHTAVASIGAVSLQSSYGAADTIRSLTTAVDIARERCLPWSMYERKHDVAQRNTFRLLAALPAALDSSSQLRLHFQPRVDLHDHRCVGVEALLRWQHPMIGPVMPSDFIPMAEKTALINRITAWVIDNGIAQAARWQQQGLDFNLALNVSAADLDRPGFAGLLRRGLDRHKLDPRRLEIEFTESAMIRHPDHLAEQLAAIAALGVHIAIDDFGTGYSNFSYLKQLPASSLKIDQSFIRSLPDSRTDRTLVPAMIQLGHSLGQRVVAEGIESAEAYAQLRAWGCDEGQGYWIAKPMPAAALETWLETPWHEQHAAPVNLLAASLAAARV | failed |
| LVPLESDLSRAADLLNAGRKVAILAGRGALEAKEALRETAELLGAPVAKALLGKAVLPDDDPLTTGGIGILGTAPSQEIMQQCDTLLIIGSTFPYIEYYPRPNTAAGIQIDHDPQRIGLRYPVEVGLVGEAGETLRMLNKRLKRKQDRSFLERAQEQTRNWRRELRAMEGDRS | failed |
| YLKLVRIYTKPKGQLPDYTSPVVLPYSRTTVEDFCMKIHKNLIKEFKYALVWGLSVKHNPQKVGKDHTLEDEDVIQIVKK | not failed |
| MKVLLVLTDAYSDCEKAITYAVNFSEKLGAELDILAVLEDVYNLERANVTFGLPFPPEIKEESKKRIERRLREVWEKLTGSTEIPGVEYRIGPLSEEVKKFVEGKGYELVVWACYPSAYLCKVIDGLNLASLIVK | not failed |
| MTQIIKIDPLNPEIDKIKIAADVIRNGGTVAFPTETVYGLGANAFDGNACLKIFQAKNRPVDNPLIVHIADFNQLFEVAKDIPDKVLEIAQIVWPGPLTFVLKKTERVPKEVTAGLDTVAVRMPAHPIALQLIRESGVPIAAPSANLATRPSPTKAEDVIVDLNGRVDVIIDGGHTFFGVESTIINVTVEPPVLLRPGPFTIEELKKLFGEIVIPEFAQGKKEAEIALAPGMKYKHYAPNTRLLLVENRNIFKDVVSLLSKKYKVALLIPKELSKEFEGLQQIILGSDENLYEVARNLFDSFRELDKLNVDLGIMIGFPERGIGFAIMNRARKASGFSIIKAISDVYKYVNI | not failed |
| MSDTNSGGGRQAASGPAPRGRLPFRRRVALVAVARPLIVTVGLVTAYYLLPLDERLSAGTLVSLVCGLLAVLLVFCWEVRAITRSPHPRLRAIEGLAATLVLFLVLFAGSYYLLGRSAPGSFSEPLNRTDALYFTLTTFATVGFGDITARSETGRILTMAQMTGGLLLVGVAARVLASAVQAGLHRQGRGPAASPRSGAAEEPEAGP | failed |
| MKRWQMEWLLVSVALVWGANYTIGKYGVAFMSSIQFNSLRFLVASPVLLLITFLMERSLRIERKDWLRLVAVGIVGTTMYQTMFMLSVKYTSATNASLLIAMSPIFTGILAVLHKQERFSMKVQIGSIVAFIGAAFVLLTGHTGGATYEYAWLGNIIGLVAAIAWGWYPILAQPLITKYSAMRVTSWSTLIGIVPLVIYCLFNVNTLTWPVDTPSWGSLAYSIVFATIFGLAMWYVGISQIGSTKVMVYMYLVPLFAVIFAAVIIGEQINMMQLVGGLIIFIGLYVVKKGGMKKPALNLKKVS | failed |
| MSALPSYTQNGQTITFAFAQPLQLTIVTPEIIRVFINRGEQGESYAIEGHKIQATDFTIESAGDHYIIRTSALTIHLDSERHLDTFDKDGNALITDYRGERIHLKGVDKVHERLVEAEGHSVTKAPTKSDQGYYEIIKSLAPDEYLYGLGDKTGYLNKRGFAYDNWNVDNPAPQLEILPNIYKSIPVMLGLKNGHPYGIFFDNTYQSHLDMGKESNHYYFYSAVQGNLDYYIIGGTTLKDIVTNYTYLTGRTPLPQKWTLGYQQSRWGYSASQEEVQAIADNLAKYDLPCDAIHFDVDYMDGYRVFTWDKDKYQGNPKKFITKLNQQGLKVIPIIDPGVKQDSDYHIYAEGLKKGYFVKSADGDVYINKVWPGNAAFPDFGRPEVRQWWANNGKFLTDLGVAGIWIDMNEPATFEGPIPDDVVFNDQDTPSTHKKMHNVYGHNMAKATYAGLKEQTGNRPFVITRAAYAGTQKYSTVWTGDNRSMWPHIQMMIPQLCNLGLSGFSFTGTDIGGFASDTTSELLTRWIEGAIFSPLLRNHAALGTRQQEPWAFGEPTLNIYRKYLKLRYRLIPYLYDLFAKETKTGLPIMRPVVLNYDQDPRVRDLNDEYMVGDDILVAPVVQKSQFKRLVYLPAGNWVDFWNGAEYAGNQDIVVDTPLDKLPLFVKQNTILPWGPAVSHISDEPLKAMTFRVFGTQGTYQHYQDNGRDFKYQSGEWNNYTITVDHNKVNVQLTHHGYQPVYQQITVELSDHVVKLTYDNDSSCYRE | failed |
| MSLTTPTMIAAVVEEANGPFVLRKLARPQPAPGQVLVQIEASGTNPLDAKIRAGEAPHAQQPLPAILGMDLAGTVVAVGPEVDSFRVGDAVFGLTGGVGGLQGTHAQFAAVDARLLASKPAALTMRQASVLPLVFITAWEGLVDRAQVQDGQTVLIQGGGGGVGHVAIQIALARGARVFATARGSDLEYVRDLGATPIDASREPEDYAAEHTAGQGFDLVYDTLGGPVLDASFSAVKRFGHVVSCLGWGTHKLAPLSFKQATYSGVFTLHTLLANEGLAHFGEMLREADALVQTGKLAPRLDPRTFSIAEIGSAYDAVLGRNDVPRQRGKIAITVEGHHHHHH | not failed |
| MTGFASLPVEFLITVFAMSFSIGFVAIIAGTGGGVLFTSCLWDLHQYIRTNKSNRTSFGDCWAIGPTINLIMLAPLKIATTTSAVVISIGDTAAIFPYFMSGSLLPIFAVPAVAGLMTGARFGSAVAVRVKAKYIRYTLTTILLFAGIKLIWVGLWMLEG | failed |
| MTHEAMSPGEWKAKGGGLTIRYGFHASPFGLALVMITDRGLAGCAFADPGDERACFEDMAGRWPNADYVEDREATAPYAARIFEPAMWTADKPLRVVLEHHHHHH | not failed |
| MTESTGSTSQEQQVRGETMPDWEKRFRAPRVSLPDWAEDAPHRALFVSNATGTYELYAWDRTTGEQRQVTDRPNGTTDGVLSPDGEWIWWFDDTDGDEFGIWRRQRFTGGGTADGPDEPAADGLEPSYPAGLAIGRDGGTAVVGRSTDEDGSTVHVVRAGQEPVEIYRHRESAGVGDLSHDGSLIAVEHTEHGDAMHSALRVLRLDGSTVAELDDTKGGSVELGLEVLGFAPVDGDTRLLIGHQRRGRWEPLVWDVASGEETDLALELPGDVGAEWYPDGSALLVAHSFEARSELFRYDLASRELVRVPTPAGTVSGATARPDGSVEYLWSSAAEPSVVRSTSGGIVLDPPGMKSPGSVPVEDVWVEGPGGRVHALVQRPAGASGPLPTVFDIHGGPTWHDSDSFAAGPAAWLDHGYAVVRVNYRGSTGYGREWTDALKHRVGLIELEDIAAVREWAVSSGLADPDRLILTGGSWGGYLTLLGLGTQPDAWTIGIAAVPVADYVTAYHDEMEALKAMDRTLLGGTPEEVPERFEASSPLTYVDAVKAPVYISAGVNDPRCPIRQVENYVERLTARDAVHEVYRYDAGHGSLVVDERIKQVRLELEFAERHLGR | failed |
| ILGWVEFTRLEPWGIKTPARIDTGANTSSMSARDINVFKRNGKTWVRFTFDFKKGTAERSIEIERPLVRMVKIKQHDGPSQERPVISMEICLADEIREAEFDLIDRRALNYPVLLGRKALAGYVVVDPARAYLTKAVCGHTKKKKKGSEPADPGQQHE | failed |
| MEATNLPQPSAPADLGALQRPSYFRRLGPFDWLFAALLALGAGYAFSRYGAYMDGYERGILVAAVPAFAWLGWTWKPVRTLMIGLAVLSLFAIAQYSGPNGPELARADRVFFLKYFLASQSAILWMSALIFLSTLFFWAGLAARWPAGGAIGSKLCWAAVVLGLTGMLVRWYESYLVGADIGHIPISNLYEVFILFTLITSLFYLYYEQRYRTRALGPFVMLVVSAAVGFLLWYTVSRGAQEIQPLVPALQSWWMKIHVPANFIGYGTFALAAMVGAAYLLKEHGVLADRLPSLEVLDDVMYKAITVGFAFFTIATILGALWAADAWGGYWSWDPKETWALIVWLNYAAWLHMRLMKGLRGRMAAWWALVGLLVTTFAFLGVNMFLSGLHSYGEL | failed |
